Assays:
[1] = target: RNA polymerase II CTD CTD (UniProt P24928); conditions: cited from earlier work
[2] = target: biotinylated 4-heptad RNA polymerase II CTD peptide, Ser5 phosphorylated on all heptads
[3] = target: biotinylated 4-heptad RNA polymerase II CTD peptide, Ser5 phosphorylated on all heptads; assay: pull-down on streptavidin-coupled Dynabeads, SDS-PAGE stained with Coomassie Blue, band quantification; conditions: biotinylated peptides of four CTD heptads; triplicate; parent: est. 1.0; read off a plot
[4] = target: biotinylated 4-heptad RNA polymerase II CTD peptide, Ser2 phosphorylated on all heptads; assay: as above; conditions: biotinylated peptides of four CTD heptads; triplicate; parent: est. 1.0; read off a plot

Chain of human capping enzyme (CE/RNGTT) GTase with the disordered flanking regions (211–597), wild-type, O60942 R330A; K331A; R386A (O60942 211-597 R330A/K331A/R386A): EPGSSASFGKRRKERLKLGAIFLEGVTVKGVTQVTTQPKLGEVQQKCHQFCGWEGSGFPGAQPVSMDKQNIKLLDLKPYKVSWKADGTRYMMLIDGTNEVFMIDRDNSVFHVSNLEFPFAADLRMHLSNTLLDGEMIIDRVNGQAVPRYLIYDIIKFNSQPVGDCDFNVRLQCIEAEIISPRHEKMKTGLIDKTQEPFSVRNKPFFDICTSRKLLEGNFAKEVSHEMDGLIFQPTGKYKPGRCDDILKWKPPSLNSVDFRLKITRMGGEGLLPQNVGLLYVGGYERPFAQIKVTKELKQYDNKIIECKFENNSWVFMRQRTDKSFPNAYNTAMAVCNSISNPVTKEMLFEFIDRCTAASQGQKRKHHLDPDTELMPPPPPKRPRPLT
Chain of human capping enzyme (CE/RNGTT) GTase with the disordered flanking regions (211–597), wild-type, O60942 R330A; K331A; R386A; R358A; K403A; R411A (O60942 211-597 R330A/K331A/R358A/R386A/K403A/R411A): as the sequence (O60942 211-597 R330A/K331A/R386A) above, with R148A, K193A, R201A counted along it
Chain of human capping enzyme (CE/RNGTT) GTase with the disordered flanking regions (211–597), wild-type, O60942 R358A; K403A; R411A (O60942 211-597 R358A/K403A/R411A): as the sequence (O60942 211-597 R330A/K331A/R386A) above, with A120R, A121K, R148A, A176R, K193A, R201A counted along it
Chain of mRNA capping enzyme GTase (O60942 229-597): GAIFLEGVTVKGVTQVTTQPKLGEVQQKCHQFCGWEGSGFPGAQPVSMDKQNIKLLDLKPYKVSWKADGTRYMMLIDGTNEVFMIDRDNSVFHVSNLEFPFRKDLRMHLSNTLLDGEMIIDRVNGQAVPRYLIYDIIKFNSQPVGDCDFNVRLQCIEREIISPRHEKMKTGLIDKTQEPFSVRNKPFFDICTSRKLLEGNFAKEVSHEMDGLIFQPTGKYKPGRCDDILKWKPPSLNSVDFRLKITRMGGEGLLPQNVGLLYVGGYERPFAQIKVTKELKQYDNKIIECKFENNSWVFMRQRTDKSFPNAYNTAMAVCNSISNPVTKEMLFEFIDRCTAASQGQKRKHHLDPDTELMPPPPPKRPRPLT
Chain of human capping enzyme (CE/RNGTT) GTase with the disordered flanking regions (211–597), wild-type (O60942 211-597): as the sequence (O60942 211-597 R330A/K331A/R386A) above, with A120R, A121K, A176R counted along it
Chain of RNA polymerase II CTD CTD (P24928 1593-1970 A1835T): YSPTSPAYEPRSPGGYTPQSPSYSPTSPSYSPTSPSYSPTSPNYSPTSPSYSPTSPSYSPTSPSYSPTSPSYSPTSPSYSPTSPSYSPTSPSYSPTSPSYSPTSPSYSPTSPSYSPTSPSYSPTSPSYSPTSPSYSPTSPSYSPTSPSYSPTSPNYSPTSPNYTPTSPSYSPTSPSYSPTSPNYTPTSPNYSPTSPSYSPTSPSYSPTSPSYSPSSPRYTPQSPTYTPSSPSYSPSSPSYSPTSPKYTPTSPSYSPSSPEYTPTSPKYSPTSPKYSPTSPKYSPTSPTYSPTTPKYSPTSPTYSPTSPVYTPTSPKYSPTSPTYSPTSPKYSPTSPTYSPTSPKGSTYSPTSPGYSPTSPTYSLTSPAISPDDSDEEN

Substance | ratio to parent [3] | ratio to parent [4] | other results
mRNA capping enzyme GTase (from UniProt O60942) |  |  | Kd [1]: 139 µM
human CE GTase (211–597) ΔCDS1 (R330A/K331A/R386A) (from UniProt O60942 211-597) (domain or fragment) |  |  | guanylyltransferase activity (32P-GMP bound to the GTase), 0-10 μM 4-heptad pSer5 CTD peptide, relative to basal activity [2]: 1.4 fold
human capping enzyme (CE/RNGTT) GTase with the disordered flanking regions (211–597), wild-type, O60942 R330A; K331A; R386A | 0.43 | 0.2 | 
human capping enzyme (CE/RNGTT) GTase with the disordered flanking regions (211–597), wild-type, O60942 R358A; K403A; R411A | 0.18 | 0.12 | 
human capping enzyme (CE/RNGTT) GTase with the disordered flanking regions (211–597), wild-type (from UniProt O60942 211-597) (domain or fragment) |  |  | guanylyltransferase activity (32P-GMP bound to the GTase), 0-10 μM 4-heptad pSer5 CTD peptide, relative to basal WT activity [2]: 2.2 fold
human capping enzyme (CE/RNGTT) GTase with the disordered flanking regions (211–597), wild-type, O60942 R330A; K331A; R386A; R358A; K403A; R411A | 0.03 | 0.035 | 

Source: publication PMC8034621
